Measurements as given in US20090169520.

T1: Amylin (islet amyloid polypeptide, IAPP), P10997
T1 chain: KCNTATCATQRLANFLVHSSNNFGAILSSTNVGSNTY

B1: recombinant human AChE-S (synaptic acetylcholinesterase) (protein)
chain: EGREDAELLVTVRGGRLRGIRLKTPGGPVSAFLGIPFAEPPMGPRRFLPPEPKQPWSGVVDATTFQSVCYQYVDTLYPGFEGTEMWNPNRELSEDCLYLNVWTPYPRPTSPTPVLVWIYGGGFYSGASSLDVYDGRFLVQAERTVLVSMNYRVGAFGFLALPGSREAPGNVGLLDQRLALQWVQENVAAFGGDPTSVTLFGESAGAASVGMHLLSPPSRGLFHRAVLQSGAPNGPWATVGMGEARRRATQLAHLVGCPPGGTGGNDTELVACLRTRPAQVLVNHEWHVLPQESVFRFSFVPVVDGDFLSDTPEALINAGDFHGLQVLVGVVKDEGSYFLVYGAPGFSKDNESLISRAEFLAGVRVGVPQVSDLAAEAVVLHYTDWLHPEDPARLREALSDVVGDHNVVCPVAQLAGRLAAQGARVYAYVFEHRASTLSWPLWMGVPHGYEIEFIFGIPLDPSRNYTAEEKIFAQRLMRYWANFARTGDPNEPRDPKAPQWPPYTAGAQQYVSLDLRPLEVRRGLRAQACAFWNRFLPKLLSATDTLDEAERQWKAEFHRWSSYMVHWKNQFDHYSKQDRCSDL
B2: purified human BChE (butyrylcholinesterase, from human serum; Sigma) (protein)
chain: EDDIIIATKNGKVRGMNLTVFGGTVTAFLGIPYAQPPLGRLRFKKPQSLTKWSDIWNATKYANSCCQNIDQSFPGFHGSEMWNPNTDLSEDCLYLNVWIPAPKPKNATVLIWIYGGGFQTGTSSLHVYDGKFLARVERVIVVSMNYRVGALGFLALPGNPEAPGNMGLFDQQLALQWVQKNIAAFGGNPKSVTLFGESAGAASVSLHLLSPGSHSLFTRAILQSGSFNAPWAVTSLYEARNRTLNLAKLTGCSRENETEIIKCLRNKDPQEILLNEAFVVPYGTPLSVNFGPTVDGDFLTDMPDILLELGQFKKTQILVGVNKDEGTAFLVYGAPGFSKDNNSIITRKEFQEGLKIFFPGVSEFGKESILFHYTDWVDDQRPENYREALGDVVGDYNFICPALEFTKKFSEWGNNAFFYYFEHRSSKLPWPEWMGVMHGYEIEFVFGLPLERRDNYTKAEEILSRSIVKRWANFAKYGNPNETQNNSTSWPVFKSTEQKYLTLNTESTRIMTKLRAQQCRFWTSFFPKVLEMTGNIDEAEWEWKAGFHRWNNYMMDWKNQFNDYTSKKESCVGL

Columns and labels:
[1] = biological target: synthetic Aβ (1-40) peptide (Biosource), P05067
[2] = biological target: T1, Amylin (islet amyloid polypeptide, …)

synthetic Aβ (1-40) peptide (Biosource), P05067, sequence (P05067 whole entry, looked up, tested part not stated): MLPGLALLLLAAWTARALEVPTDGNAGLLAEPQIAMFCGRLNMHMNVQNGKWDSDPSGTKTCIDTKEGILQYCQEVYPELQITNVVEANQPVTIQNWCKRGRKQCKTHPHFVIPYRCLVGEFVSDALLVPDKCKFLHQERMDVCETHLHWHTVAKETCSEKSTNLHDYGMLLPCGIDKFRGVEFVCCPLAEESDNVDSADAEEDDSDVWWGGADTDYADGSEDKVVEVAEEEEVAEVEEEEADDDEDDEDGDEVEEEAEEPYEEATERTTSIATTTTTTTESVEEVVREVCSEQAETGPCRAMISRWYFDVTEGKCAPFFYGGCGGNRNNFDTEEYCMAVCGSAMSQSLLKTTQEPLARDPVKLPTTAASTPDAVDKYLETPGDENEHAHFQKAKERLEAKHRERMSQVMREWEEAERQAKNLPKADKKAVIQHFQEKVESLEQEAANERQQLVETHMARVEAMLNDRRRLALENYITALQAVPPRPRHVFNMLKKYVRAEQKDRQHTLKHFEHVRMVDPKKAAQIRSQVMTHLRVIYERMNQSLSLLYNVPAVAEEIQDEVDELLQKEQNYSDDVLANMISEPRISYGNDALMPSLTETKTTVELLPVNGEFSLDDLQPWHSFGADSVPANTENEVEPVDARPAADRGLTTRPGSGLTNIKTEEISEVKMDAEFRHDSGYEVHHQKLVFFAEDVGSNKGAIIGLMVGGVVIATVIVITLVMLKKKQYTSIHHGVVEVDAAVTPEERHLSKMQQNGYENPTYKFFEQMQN

| Protein | Lag (fold change) of Aβ fibrillation against no addition [1] | Lag (h) before onset of Aβ fibrillation (no addition: 4.0 ± 0.3) [1] | Rate (FU/h) of Aβ fibrillation, ThT fluorescence, 33 µM Aβ, AChE-S at 25.8 mg/L (no addition: 3.4 ± 0.4) [1] | Rate (fold change) of Aβ fibrillation against no addition [1] | Aβ fibril formation in a mix of 33 µM Aβ with 0.36 µM AChE-S and increasing doses of hBChE (ThT fluorescence) [1] | Lag (h) before onset of Aβ fibrillation [1] | Rate (FU/h) of Aβ fibrillation, ThT fluorescence, BChE at 27.4 mg/L [1] | concentration needed for a complete attenuation of Aβ fibrillation (for 400 minutes) [1] | time for which Aβ fibril formation was totally prevented (0.4 µM BChE, 33 µM Aβ, ThT fluorescence) [1] | lag time of amylin amyloid fibril formation with 0.24 µM BChE (30 minutes without) [2] | time for which amylin fibril formation was completely attenuated (20 µM amylin, 0.24 µM BChE, ThT fluorescence) [2] |
| --- | --- | --- | --- | --- | --- | --- | --- | --- | --- | --- | --- |
| B1 | 0.6 fold | 2.5 h | 7 FU/h | 2.1 fold | – | – | – | – | – | – | – |
| B2 | 1.4 fold | – | – | 0.3 fold | a dose-dependent interference with the fibril formation process was observed | 5.6 h | 1.1 FU/h | as compared with 30 µg/ml of the complete BChE enzyme | addition of 0.4 µM BChE to 33 µM Aβ totally prevented fibril formation for over 600 minutes | increased the lag time of amyloid fibril formation from 30 minutes to 110 minutes | BChE completely attenuated the formation of amylin fibrils for 100 minutes |
